{
  "source": "patent US20250154208A1",
  "key": {"IgG [1]": {"molecular_target": "IgG", "assay": "column chromatography, ligand coupled to agarose, IgG loaded at 1 mg/ml, before alkali treatment"}, "IgG [2]": {"molecular_target": "IgG", "assay": "SPR, Biacore 4000; IgG amine-coupled to CM5 chip, C domain construct as analyte"}},
  "data": [
    {"substance": "(Native C-domain) 4", "values": [
      {"measurement": "Initial IgG capability (dynamic binding capacity at 10% breakthrough)", "setting": "IgG [1]", "value": 165, "unit": "mg/mL"},
      {"measurement": "Kd", "setting": "IgG [2]", "value": 7.18, "unit": "nM"}
    ]}
  ]
}
